Literature values as cited in PMC3417102.

Assays:
[1] = biological target: plasminogen (Homo sapiens) (UniProt P00747)
[2] = biological target: tissue-type plasminogen activator (Homo sapiens) (UniProt P00750)
[3] = biological target: Glu-plasminogen (Homo sapiens) (UniProt P00747)

UniProt P00750, sequence (P00750 311-562): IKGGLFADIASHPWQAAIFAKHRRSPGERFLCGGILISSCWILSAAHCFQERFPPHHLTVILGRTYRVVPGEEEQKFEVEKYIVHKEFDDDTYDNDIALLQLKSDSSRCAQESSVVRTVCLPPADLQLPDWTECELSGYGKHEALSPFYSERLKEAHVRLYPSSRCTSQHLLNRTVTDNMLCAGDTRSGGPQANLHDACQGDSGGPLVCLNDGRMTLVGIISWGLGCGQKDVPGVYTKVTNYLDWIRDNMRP

Row | Kd [1] [nM] | Kd [2] [nM] | Kd [3] [nM] | Substance
1 | 114 | 30 |  | Annexin A2 (from UniProt P07355)
2 |  |  | 370 | beta2-glycoprotein I (nicked) (from UniProt P02749)
